Source: publication PMC11417362, “Template-independent synthesis and 3′-end labelling of 2′-modified oligonucleotides with terminal deoxynucleotidyl transferases” (Nucleic Acids Research, 2024)

How the values were obtained:
[1] = substrate: CO[C@@H]1[C@H](O)[C@@H](COP(=O)(O)OP(=O)(O)OP(=O)(O)O)O[C@H]1n1cnc2c(=O)[nH]c(N)nc21; test: steady-state primer extension, denaturing PAGE, Michaelis-Menten fit; type: biochemical, Mus musculus; details: 100 nM ssDNA primer FAM-18G, 10 mM Mg(OAc)2, 1x TdT buffer (100 mM KCl, 30 mM Tris-acetate, 0.05% Triton X-100), pH 7.5, 37°C
Excerpt: (§1) steady-state primer extension, denaturing PAGE, Michaelis-Menten fit on murine TdT

[2] = substrate: Nc1nc2c(ncn2[C@@H]2O[C@H](COP(=O)(O)OP(=O)(O)OP(=O)(O)O)[C@@H](O)[C@@H]2F)c(=O)[nH]1; test: as above; type: biochemical, Mus musculus; details: 100 nM ssDNA primer FAM-18G, 10 mM Mg(OAc)2, 1x TdT buffer (100 mM KCl, 30 mM Tris-acetate, 0.05% Triton X-100), pH 7.5, 37°C
Excerpt: as §1

[3] = substrate: Cc1cn([C@H]2C[C@H](O)[C@@H](COP(=O)(O)OP(=O)(O)OP(=O)(O)O)O2)c(=O)[nH]c1=O; test: as above; type: biochemical, Mus musculus; details: 100 nM ssDNA primer FAM-18G, 10 mM Mg(OAc)2, 1x TdT buffer (100 mM KCl, 30 mM Tris-acetate, 0.05% Triton X-100), pH 7.5, 37°C
Excerpt: as §1

[4] = substrate: Nc1ccn([C@H]2C[C@H](O)[C@@H](COP(=O)(O)OP(=O)(O)OP(=O)(O)O)O2)c(=O)n1; test: as above; type: biochemical, Mus musculus; details: 100 nM ssDNA primer FAM-18G, 10 mM Mg(OAc)2, 1x TdT buffer (100 mM KCl, 30 mM Tris-acetate, 0.05% Triton X-100), pH 7.5, 37°C
Excerpt: as §1

[5] = substrate: Nc1ncnc2c1ncn2[C@H]1C[C@H](O)[C@@H](COP(=O)(O)OP(=O)(O)OP(=O)(O)O)O1; test: as above; type: biochemical, Mus musculus; details: 100 nM ssDNA primer FAM-18G, 10 mM Mg(OAc)2, 1x TdT buffer (100 mM KCl, 30 mM Tris-acetate, 0.05% Triton X-100), pH 7.5, 37°C
Excerpt: as §1

[6] = substrate: Nc1nc2c(ncn2[C@@H]2O[C@H](COP(=O)(O)OP(=O)(O)OP(=O)(O)O)[C@@H](O)[C@H]2F)c(=O)[nH]1; test: as above; type: biochemical, Mus musculus; details: 100 nM ssDNA primer FAM-18G, 10 mM Mg(OAc)2, 1x TdT buffer (100 mM KCl, 30 mM Tris-acetate, 0.05% Triton X-100), pH 7.5, 37°C
Excerpt: as §1

[7] = substrate: Nc1ccn([C@@H]2O[C@H](COP(=O)(O)OP(=O)(O)OP(=O)(O)O)[C@@H](O)[C@@H]2F)c(=O)n1; test: as above; type: biochemical, Mus musculus; details: 100 nM ssDNA primer FAM-18G, 10 mM Mg(OAc)2, 1x TdT buffer (100 mM KCl, 30 mM Tris-acetate, 0.05% Triton X-100), pH 7.5, 37°C
Excerpt: as §1

[8] = substrate: O=c1ccn([C@@H]2O[C@H](COP(=O)(O)OP(=O)(O)OP(=O)(O)O)[C@@H](O)[C@H]2F)c(=O)[nH]1; test: as above; type: biochemical, Mus musculus; details: 100 nM ssDNA primer FAM-18G, 10 mM Mg(OAc)2, 1x TdT buffer (100 mM KCl, 30 mM Tris-acetate, 0.05% Triton X-100), pH 7.5, 37°C
Excerpt: as §1

[9] = substrate: CO[C@@H]1[C@H](O)[C@@H](COP(=O)(O)OP(=O)(O)OP(=O)(O)O)O[C@H]1n1ccc(N)nc1=O; test: purified protein, by the assay type
Experimental: (§2) The steady-state kinetic experiments were performed as described previously with minor modifications ([61]). A 2× reaction solution was prepared by mixing 200 nM primer FAM-18G, 0–128 μM 2′-modified NTP and 20 mM Mg(OAc)2 in 2× TdT buffer. A 5 μl aliquot of pre-warmed 2× reaction solution was mixed with 5 μl of bovine TdT, MTdT-evo or murine TdT of varying concentration, and incubated at 37°C for a certain time. The reaction was then quenched by the addition of 10 μl of 2× TBE-urea sample buffer and incubation at 95°C for 10 min. The products were analysed with 20% denaturing PAGE gels containing 8 M urea. All gel bands were quantified using Quantity One analysis software (Bio-Rad). Km and kcat values were calculated by fitting the data to the Michaelis–Menten equation with GraphPad Prism 8 software. To quantify the activities of different TdTs for the incorporation of 2′-modified NTPs, steady-state kinetic experiments were carried out.

[10] = substrate: O=c1ccn([C@@H]2O[C@H](COP(=O)(O)OP(=O)(O)OP(=O)(O)O)[C@@H](O)[C@@H]2F)c(=O)[nH]1; test: purified protein, by the assay type
Experimental: as §2

[11] = substrate: Nc1ncnc2c1ncn2[C@@H]1O[C@H](COP(=O)(O)OP(=O)(O)OP(=O)(O)O)[C@@H](O)[C@H]1F; test: purified protein, by the assay type
Experimental: as §2

[12] = substrate: Nc1ncnc2c1ncn2[C@@H]1O[C@H](COP(=O)(O)OP(=O)(O)OP(=O)(O)O)[C@@H](O)[C@@H]1F; test: purified protein, by the assay type
Experimental: as §2

B1: murine TdT (Mus musculus) (protein)
chain: MDPLQAVHLGPRKKRPRQLGTPVASTPYDIRFRDLVLFILEKKMGTTRRAFLMELARRKGFRVENELSDSVTHIVAENNSGSDVLEWLQLQNIKASSELELLDISWLIECMGAGKPVEMMGRHQLVVNRNSSPSPVPGSQNVPAPAVKKISQYACQRRTTLNNYNQLFTDALDILAENDELRENEGSCLAFMRASSVLKSLPFPITSMKDTEGIPCLGDKVKSIIEGIIEDGESSEAKAVLNDERYKSFKLFTSVFGVGLKTAEKWFRMGFRTLSKIQSDKSLRFTQMQKAGFLYYEDLVSCVNRPEAEAVSMLVKEAVVTFLPDALVTMTGGFRRGKMTGHDVDFLITSPEATEDEEQQLLHKVTDFWKQQGLLLYCDILESTFEKFKQPSRKVDALDHFQKCFLILKLDHGRVHSEKSGQQEGKGWKAIRVDLVMCPYDRRAFALLGWTGSRQFERDLRRYATHERKMMLDNHALYDRTKRVFLEAESEEEIFAHLGLDYIEPWERNA
notes: recombinant, plasmid pET28a-murine TdT, E. coli BL21(DE3)
Km [1]: 1.97 ± 0.14 µM | kcat [1]: 0.00217 ± 8.67e-05 s⁻¹ | kcat/Km [1]: 1100 M⁻¹ s⁻¹ | Km [2]: 2.75 ± 0.23 µM | kcat [2]: 0.247 ± 0.007 s⁻¹ | kcat/Km [2]: 90000 M⁻¹ s⁻¹ | Km [3]: 1.00 ± 0.33 µM | kcat [3]: 0.0198 ± 0.00183 s⁻¹ | kcat/Km [3]: 19800 M⁻¹ s⁻¹ | Km [4]: 1.37 ± 0.18 µM | kcat [4]: 0.058 ± 0.0055 s⁻¹ | kcat/Km [4]: 42300 M⁻¹ s⁻¹ | Km [5]: 2.53 ± 0.30 µM | kcat [5]: 0.0307 ± 0.00118 s⁻¹ | kcat/Km [5]: 12100 M⁻¹ s⁻¹ | Km [6]: 2.59 ± 0.36 µM | kcat [6]: 0.0892 ± 0.0055 s⁻¹ | kcat/Km [6]: 34500 M⁻¹ s⁻¹ | Km [7]: 1.66 ± 0.71 µM | kcat [7]: 0.09 ± 0.00667 s⁻¹ | kcat/Km [7]: 54200 M⁻¹ s⁻¹ | Km [8]: 0.95 ± 0.31 µM | kcat [8]: 0.00617 ± 0.000567 s⁻¹ | kcat/Km [8]: 6480 M⁻¹ s⁻¹ | Km [9]: 5.1 ± 1.53 µM | kcat [9]: 0.00112 ± 8.67e-05 s⁻¹ | kcat/Km [9]: 219 M⁻¹ s⁻¹ | Km [10]: 2.36 ± 0.60 µM | kcat [10]: 0.06 ± 0.00433 s⁻¹ | kcat/Km [10]: 25500 M⁻¹ s⁻¹ | Km [11]: 0.62 ± 0.48 µM | kcat [11]: 0.023 ± 0.00108 s⁻¹ | kcat/Km [11]: 37200 M⁻¹ s⁻¹ | Km [12]: 3.98 ± 0.33 µM | kcat [12]: 0.204 ± 0.00283 s⁻¹ | kcat/Km [12]: 51300 M⁻¹ s⁻¹
